Test results from the DeepSol protein solubility set.

assay: soluble on expression in E. coli; label from the status in PepcDB or PDB records

Row | Sequence | soluble on expression in E. coli
1 | MTDLVAVWDVALSDGVHKIEFEHGTTSGKRVVYVDGKEEIRREWMFKLVGKETFFVGAAKTKATINIDAISGFAYEYTLEIDGKSLKKYMENRSKTTSTWVLRLDGEDLRVVLEKDTMDVWCNGQKMETAGEFVDDGTETHFSVGNHGCYIKAVSSRKRKEGIIHTLIVDNREIPELTQ | soluble
2 | MTDQATPNLPSRDFDSTAAFYERLGFGIVFRDAGWMILQRGDLMLEFFAHPGLDPLASWFSCCLRLDDLAEFYRQCKSVGIQETSSGYPRIHAPELQGWGGTMAALVDPDGTLLRLIQNELLAGIS | soluble
3 | MTDSELMQLSEQVGQALKARGATVTTAESCTGGWVAKVITDIAGSSAWFERGFVTYSNEAKAQMIGVREETLAQHGAVSEPVVVEMAIGALKAARADYAVSISGIAGPDGGSEEKPVGTVWFAFATARGEGITRRECFSGDRDAVRRQATAYALQTLWQQFLQNT | not soluble
4 | MTDSPSPIDSSFDASDVATPCTVIAAKISLRNRNGLEEDQENLDSFDAFTETHETQESKNIAHGEHEEDVSNIYVDDFSKEFGDTVSSVMEPLPKPLTFARTITKVYCHLDDQEHPYMVEVHVPPDCITLRDVKRKLMRTNFKYYCIALDPDTGLEVKAEVRDDSRRLYPLKNGRFELYLLTVEGSVHSDTSSGRHRRKQDGSSKGSSGSREYLRAAHHYDNPTPFSDDESQASSLPTYVKKAHAYNRKHAPQAYERHLPHMKHNNRHNHHRQNHYEESTFDVTTESDDHYRDGVTYYDEDEDDSRSINTDLTSVSQVHLKQKWRQQQKEMRNKWKRMPSISTASSSFSSITESSMGLEVITVRLNLETIPLGMTPSGHTNARGDAGLYVGDIQDRGAVALDGRIDIGDMIVGINEISLGNYSNKEAVQLLREAVQRQYLTLTIAKTGDPKQNAFPRNPRAEPIRPIDPNEWVKHATNAMKAMPSISEGSGLDIKDRYWFKIPIPMSFLGTDLVEWLVKHVQGLETKKKAREFAEEMLKLGYIRPGVGKQSFTKECYYVMGDECADYTQLRGPDGGYKYPQSHASSASGHSSNNLIFPPSMYPPQPPTAGAVQSSKFEGREMIREVKRVGVVEEAREGTSNYHGSLHHSAVGLV | soluble
5 | MTDSRTHLRLQIRQRRQSLSAFEQQTASQQLIHTFASLPEVTAAQRIALYLANDGELNTQPLIEWLWQQGKQVYLPVLHPFAKGHLLFLHYHTHTPMNKNRYGIAEPKLDQRLICPVRELDIIGTPLVAFDQSGQRLGMGGGYYDRTLAPWFKTQQGAMPIGLAHDCQQVEQLPTASWDIPLRKIVTPSKVWQWLEHHHHHH | not soluble
6 | MTEALELGDCLLSGAVGLVVKRRSGIAEDVARLVVKELVESGVEVLVDETVDYPSLSGFPRFSISRDPPGRVVVVGGDGTLLRTFLRLGERESPLFMTIKAGKKGFLLDVERYEAVERLRDFLEGRFREVVYPRYRVYLEGEARACMFNDTAVTANNAKMARVHVFVDGDLAMNIDGDGVVVSTTAGSTAYSLSGGGPIIDPRLDVIVLTPLNPVQLFLRSIVVPSGSRVTVEASVYSNPLVVNIDGQYVYELEPGGIVDIERCGSGVRIARFRWWEDYYERLYTRLLAYWAAALEHHHHHH | not soluble
7 | MTEHLDVVIVGAGISGVSAAWHLQDRCPTKSYAILEKRESMGGTWDLFRYPGIRSDSDMYTLGFRFRPWTGRQAIADGKPILEYVKSTAAMYGIDRHIRFHHKVISADWSTAENRWTVHIQSHGTLSALTCEFLFLCSGYYNYDEGYSPRFAGSEDFVGPIIHPQHWPEDLDYDAKNIVVIGSGATAVTLVPALADSGAKHVTMLQRSPTYIVSQPDRDGIAEKLNRWLPETMAYTAVRWKNVLRQAAVYSACQKWPRRMRKMFLSLIQRQLPEGYDVRKHFGPHYNPWDQRLCLVPNGDLFRAIRHGKVEVVTDTIERFTATGIRLNSGRELPADIIITATGLNLQLFGGATATIDGQQVDITTTMAYKGMMLSGIPNMAYTVGYTNASWTLKADLVSEFVCRLLNYMDDNGFDTVVVERPGSDVEERPFMEFTPGYVLRSLDELPKQGSRTPWRLNQNYLRDIRLIRRGKIDDEGLRFAKRPAPVGV | soluble
8 | MTEHVITSKCESPLLQAFVDNYLLLVKIAARIVGCRSRAEDVVQDAFFRLRSAPQATLTFKAQLSYLFQIVRNLAIDHYRKQALEQKYTGPEAEGLNVVIQGASPEISHINFTSLEKIADALSELPPRTRYAFEMYRLHGVPQKDIAKELGVSPTLVNFMIRDALIHCRKVNGTTAEA | not soluble
9 | MTEMTKPFLIVIVGPTASGKTELSIEVAKKFNGEIISGDSMQVYQGMDIGTAKVTTEEMEGIPHYMIDILPPDASFSAYEFKKRAEKYIKDITRRGKVPIIAGGTGLYIQSLLYNYAFEDESISEDKMKQVKLKLKELEHLNNNKLHEYLASFDKESAKDIHPNNRKRVLRAIEYYLKTKKLLSSRKKVQQFTENYDTLLIGIEMSRETLYLRINKRVDIMLGHGLFNEVQHLVEQGFEASQSMQAIGYKELVPVIKGNISMENAVEKLKQHSRQYAKRQLTWFKNKMNVHWLNKERMSLQMMLDEITTQINKRSSNHDCKRKHPRPSTRELLEHHHHHH | soluble
10 | MTENILRKSDEEIQKEITARVKALESMLIEQGILTTSMIDRMAEIYENEVGPHLGAKVVVKAWTDPEFKKRLLADGTEACKELGIGGLQGEDMMWVENTDEVHHVVVCTLCSCYPWPVLGLPPNWFKEPQYRSRVVREPRQLLKEEFGFEVPPSKEIKVWDSSSEMRFVVLPQRPAGTDGWSEEELATLVTRESMIGVEPAKAV | soluble
11 | MTENNVDPYEVVKKRYESTVDSFVLSDLFQPTLESNQELIDDVKDNRLVIYTAFTGNYDELKEPEFIDENCDYVCFTENPDLESDTWEIVQMEKSTLDDNRKAKQYRLFTDKYFPEYKYSFWLDGTFKIVGSIREYIYKYAKSKMLVVVHPERDCIYDEAVMSMPFPRYSNYTMTKQVEKYRSEGMPEHYGLPATGALFRAHNDPEIISIMRQWWREVVNYTNQDQLSLPYVMWKNNFHPSVSDVYYWVNEYWSKEGSYQHNFEIEDYITSRNLIESLEGNIKDKNTLTKEEINLLFNDIDALRDEANALNIARDHWDRQIRGVRNSTSWLEHHHHHH | soluble
12 | MTERKIFNRLKSVLAEKGKTNLWLTETLDKNKTTVSKWCTNDVQPSLETLFDIAEALNVDVRELIVSTKR | soluble
13 | MTETGGRHLLEALTLCEVILSRYKRCGLQVDETETKAFQAVSERFHEITHATQGDNAAFVKSQKIIKMAPAIPTIGAVFQTPLESVTKLMEKCIDLCLPIKEVFIMLNEQISAVLRTKNTRTYYLDSGDDLLKDPVNGIAALVDERTPLGKTLFCTRPFSIAGTLYIPLLHNETVIGCVESPSGRTDYHSQAIIDAVLRVAATVIHNTIESERLNWNKEKAEAMLTMATQLARDNLDEAVLANSIMNTAKVLTESDRCSIFLVKDDTLEAHFEDGNIVAIPIATGIAGYVAQTGQTVKISDAYSDDRFNREVDKATGYRTKTILCMPVTYEGSIVAVAQLINKLDMVTESGLRLPRTFGKRDEELFQTFSMFAGASLRNCRINEKLINEKRKSDAILDVVTLLSNTDIRDVDGIVRHVLHGAKRLLYADRSALFLVDKERNELYSRIADSVAGKEIRFPCGQGIAGVVASTGIGENILDAYQDPRFNREVDKQLGYRTQTLLCEPIVLNGEILAVVQLVNKLNEAGEVTVFTESDRETFRVFSLFAGISINNSHLLEFAVKAGREMMELNENRALAGGRTGSLRNIKRPLAITETERQAVRDINLAHLDITSIDFDLFYLRENMDLPLDAAAAVAYRLIVGTGLPQKFRCRDDTLLNFILQCRKKYRNVPYHNFYHVVDVCQTIYTFLYKGAVCEKLTELDCFVLLVTALVHDLDHMGLNNSFYLKTDSPLGILSSASGNASVLEVHHCNLAVEILSDPDSDVFEGLDATDRTLAYRSMIDCVLATDMAKHNELLSLFLVAMEKPYRIGDVASRQMMMDVIVKAGDVSNVTKPFDISRLWAMAVTEEFYRQGDMEKEKGVEVLPMFDRSKNTELAKGQIGFIDFVAGPFFKKIVSASLTGMQWTVERVESNRLEWQRTLDLKAAGDGNK | not soluble
14 | MTEVNAFADTPWRAGVIQDFARSELFDRTFEEGMQLVEETAAYLDGAGRHDSKVLSRNAALGYATESMRLTTRLMQVASWLLVQRAVREGEMPPEAACAEAYRLAEEAPADGPAVEELPFGLMNLLQRSERLYERVRHLDRRMYVESPNEEAPRPVQNQLDRLTAAFGG | soluble
15 | MTFFFDDRDQAVPYTATADDVAPTGQQIWQELQSGKWGEIAPFTVTPEMLEAAREARRQEIEAWRTEQEAKPFTFEWNGRIWNAGPDSLGRLSPVVMLAKSVTAQTHMAWSDADNQQVKLSMPELEELAESQKTALLTEAESVIRQPGRAVRLNRETDESGEARGRASVFPESVRSVVYAM | not soluble
16 | MTFMSEVKFETVEQKASYGIGLQMGQQLAGSGLEGLNVAAIAAGIATALVGEQPAISIDEINQALHAIHMRAEEARQEAAKVAASEGEAFLKDNALRPEVTVLESGLQYEVLVEGNGAIPTSDKSVRVHYHGQLVDGTVFDSSVSRGQPAEFPVTGVIRGWVEALQLMPVGSKWKLYIPHNLAYGERGAGAAIPPFAALVFEVELLDIL | not soluble
17 | MTFRYRGPSPKGDQPKAIAGLVEALRDGERFVTLLGATGTGKTVTMAKVIEALGRPALVLAPNKILAAQLAAEFRELFPENAVEYFISYYDYYQPEAYVPGKDLYIEKDASINPEIERLRHSTTRSLLTRRDVIVVASVSAIYGLGDPREYRARNLVVERGKPYPREVLLERLLELGYQRNDIDLSPGRFRAKGEVLEIFPAYETEPIRVELFGDEVERISQVHPVTGERLRELPGFVLFPATHYLSPEGLEEILKEIEKELWERVRYFEERGEVLYAQRLKERTLYDLEMLRVMGTCPGVENYARYFTGKAPGEPPYTLLDYFPEDFLVFLDESHVTVPQLQGMYRGDYARKKTLVDYGFRLPSALDNRPLRFEEFLERVSQVVFVSATPGPFELAHSGRVVEQIIRPTGLLDPLVRVKPTENQILDLMEGIRERAARGERTLVTVLTVRMAEELTSFLVEHGIRARYLHHELDAFERQALIRDLRLGHYDCLVGINLLREGLDIPEVSLVAILDADKEGFLRSERSLIQTIGRAARNARGEVWLYADRVSEAMQRAIEETNRRRALQEAYNLEHGITPETVRKEVRAVIRPEGYEEAPLEADLSGEDLRERIAELELAMWQAAEALDFERAARLRDEIRALEARLQGVRAPEPVPGGRKRKRR | soluble
18 | MTFSKSTTDKPSYTYEELSVKNKAYVWHPFTQMKDYLEEDPVIIERGEGRKLYDVNGNEYWDGVSSIWLNVHGHQVPELDEAIREQLNKIAHSTMLGLANVPSILLAEKIIEVVPEGLKKVFYSDSGSSAVEIAIKMAFQYWQHKGKPKKQRFVTLKEAYHGDTIGAVSVGAIDLFYQVYSSLLFEAIKMPYPYTYRSPYGNDKAEIVKKHLEEMEELLKDKHEEIAAIIVEPLMQGAGGMITMPKGYLRGLRNLCTKYNVLFITDEVATGFGRTGKMFACEHENVTPDILTAGKGLTGGYLPVAITVTTDEIYNAFLGSYEEQKTFFHGHSYTGNPLGCAVAIANLELYEKTNLIEEVARKTEYVATQLEELFACKHVGDIRQCGLMVGIELVKNKETKEAFEWTERVGVQVCKRSRELGMILRPLGNTIVFMPPLASTIDEIDEMLRILYKAISDITEGE | not soluble
19 | MTGFKVSSFFYILALSRFFNAGRERACDKLKITVTHLYWFIIRKLLLHEVHVHVSRVCNVSFILSPCLFRNFFTLSLHVLYVMYEQALTPEFFRQWWDIIQSK | soluble
